Laboratory results published in US8084213, “Selection” (Domantis Limited).

Experiments:
[1] = biological target: T1, scArc-HA (pIE3 series, single-chain Arc repressor dimer) (Phage P22); experiment: co-capture of DNA on anti-HA 3F10 surface, PCR detection; details: tags: C-terminal HA; chain copies: 2 scArc per operator (stated)
T1 chain: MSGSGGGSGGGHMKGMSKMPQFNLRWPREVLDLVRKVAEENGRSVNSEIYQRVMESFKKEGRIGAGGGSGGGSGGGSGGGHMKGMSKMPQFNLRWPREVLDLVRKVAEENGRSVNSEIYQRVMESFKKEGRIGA
Experimental: (§1) In a typical solution expression experiment 1 μl of 1.7 nM template in 0.2 mg/ml tRNA is added to 25 μl EcoPro T7 in vitro translation mix Novagen), supplemented with 0.75 μl of 100 mM oxidized glutathione (Sigma), and incubated at 25° C. for four hours. During the translation reaction the streptavidin-coated PCR tubes, cut from Strep Thermofast 96-well plates (Abgene), are first incubated at room temperature for three hours with 50 μl of at least 40 nM biotinylated target protein in PBS. The coating buffer is thereafter removed and any remaining free biotin-binding sites are blocked with a 15 min pulse of 50 μg/ml biotinylated BSA in PBS. The pre-coated wells are thereafter three times washed with PBS and then filled with 100 μl of binding buffer C+ (100 mM KCl, 20 mM Tris, 5 mM MgCl_2, 0.05% Tween 20, 0.05 mM EDTA, 1% BSA). Upon completion of the translation reaction the products are diluted in Buffer C+ and applied to the pre-coated and blocked PCR tubes, allowed to bind for 30 min at room temperature and washed 4 times with 150 μl of Buffer C+. […]

scArc-Vk(E5)-HA = scArc-Vk(E5)-HA (Phage P22 / human Vk); experiment: co-capture PCR; details: tags: C-terminal Vk(E5) dAb fusion, chain copies: 2 scArc per operator (stated)
Experimental: Tubes from Strep Thermofast 96-well plates are coated by applying 2 µl of 0.05 mg/ml biotinylated rat anti-HA mAb (clone 3F10, Roche), 0.2 µl of 0.5 mg/ml biotinylated protein L (Pierce), 1 µl of biotinylated 1 mg/ml β-galactosidase or 0.1 µl of 5 mg/ml biotinylated BSA (Sigma) respectively in 50 µl aliquots of PBS and incubating for 3 hours at room temperature. The monoclonal high-affinity α-HA mAb 3F10 recognises the C-terminal HA tag, β-galactosidase and protein L can be expected to interact with the $V_\kappa$(E5) light chain domain, while BSA serves as the negative control. At the end of the incubation the coating solution is removed and the first blocking solution consisting of 150 µl of 10 ng/ml biotinylated BSA (Sigma) in PBS is added to the wells and incubated for 15 minutes. At the end of the incubation the wells are washed three times with 150 µl of PBS and blocked additionally for 30 min at room temperature with buffer C+.
25 µl S30 in vitro translation reactions (EcoPro T7, Novagen) are assembled according to the manufacturer's instructions and supplemented with 1.5 µl of 1.7 mM PCR-amplified template in 0.1 mg/ml RNA and 0.75 µl of 100 mM oxidized glutathione. […]
The PCR amplification products are analysed by 1% agarose gel electrophoresis in TAE in the presence of ethidium bromide and imaged using GeneGeius Bio Imaging System (Syngene). […]

[2] = biological target: T2, scArc-HA (pIE2 series, single-chain Arc repressor dimer) (Phage P22); experiment: co-capture of DNA on anti-HA 3F10 surface, PCR detection; buffer C+ 100 mM KCl, 5 mM MgCl2, room temp; details: tags: C-terminal HA; chain copies: 2 scArc per operator (stated)
T2 chain: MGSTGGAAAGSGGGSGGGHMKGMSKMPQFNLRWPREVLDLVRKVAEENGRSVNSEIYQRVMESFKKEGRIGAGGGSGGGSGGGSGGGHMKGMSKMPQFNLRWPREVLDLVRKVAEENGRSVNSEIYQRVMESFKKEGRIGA
Experimental: as §1

Measured: binding result

B1: Arc operator, one copy, on linear genetic element (dsDNA)
DNA 1: ATGATAGAAGCACTCTACTAT
DNA 2: ATAGTAGAGTGCTTCTATCAT
binds: all assays above
